This passage reports ECL signal and ECL signal/noise ratio results from patent publication US20120316071A1 (published 2012).

Residue numbers refer to the chain shown, from its start. Names may count otherwise.

The target in assay [1] is T1, rHuman P-Cadherin/Fc Chimera, CF (R&D Systems Cat#861-PC) (human, UniProt P22223 108-654).
T1 construct: Bought recombinant protein; Fc part of the bought chimera not given
Put plainly: ECL Multispot (MSD), antigen spotted; Fab 500 (µM); blank 439.

Assay [2] concerns the target T2, Recombinant Human DLL4 (R&D Systems Cat#1506-D4/CF) (human, UniProt Q9NR61 27-529).
T2 construct: Bought recombinant protein; also called delta-like protein 4; rHuman DLL4
The description is as above.

Assay [3] concerns the target T3, rHuman EGF R/Fc Chimera, CF (R&D Systems Cat#344-ER) (human, UniProt P00533 25-645).
T3 construct: Bought recombinant protein; Fc part of the bought chimera not given
The assay is described as above.

Assay [4] has as its target T4, rHuman Erythropoietin R/Fc Chimera, CF (R&D Systems Cat#963-ER) (human, UniProt P19235 25-250).
T4 construct: Bought recombinant protein; also called EPO R; EPO R/Fc; Fc part of the bought chimera not given
T4 sequence (looked up): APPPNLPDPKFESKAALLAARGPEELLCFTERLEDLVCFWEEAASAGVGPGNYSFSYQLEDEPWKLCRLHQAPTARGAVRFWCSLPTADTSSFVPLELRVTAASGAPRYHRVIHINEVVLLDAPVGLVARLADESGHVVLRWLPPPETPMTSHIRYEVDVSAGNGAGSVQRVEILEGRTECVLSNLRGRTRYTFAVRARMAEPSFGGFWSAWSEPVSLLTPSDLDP
The assay is described as above.

Assay [5] deals with T5, rHuman Notch-1/Fc Chimera, CF (R&D Systems Cat#3647-TK) (human, UniProt P46531 19-526).
T5 construct: Bought recombinant protein; Fc part of the bought chimera not given
The assay is described as above.

In assay [6] the target is T6, rHuman IGF-1 sR, CF (R&D Systems Cat#391-GR) (human, UniProt P08069 31-932).
T6 construct: Bought recombinant soluble receptor; also called insulin-like growth factor-1 soluble receptor
Described as above.

In assay [7] the target is T7, rHuman CD44/Fc Chimera, CF (R&D Systems Cat#3660-CD) (human, UniProt P16070 21-220).
T7 construct: Bought recombinant protein; Fc part of the bought chimera not given
Described as above.

For assay [8], the target named is T8, rHuman HGF R/c-MET/Fc Chimera, CF (R&D Systems Cat#358-MT/CF) (human, UniProt P08581 25-932).
T8 construct: Bought recombinant protein; also called HGF R/Fc; Fc part of the bought chimera not given
T8 sequence (P08581 25-932, change not shown): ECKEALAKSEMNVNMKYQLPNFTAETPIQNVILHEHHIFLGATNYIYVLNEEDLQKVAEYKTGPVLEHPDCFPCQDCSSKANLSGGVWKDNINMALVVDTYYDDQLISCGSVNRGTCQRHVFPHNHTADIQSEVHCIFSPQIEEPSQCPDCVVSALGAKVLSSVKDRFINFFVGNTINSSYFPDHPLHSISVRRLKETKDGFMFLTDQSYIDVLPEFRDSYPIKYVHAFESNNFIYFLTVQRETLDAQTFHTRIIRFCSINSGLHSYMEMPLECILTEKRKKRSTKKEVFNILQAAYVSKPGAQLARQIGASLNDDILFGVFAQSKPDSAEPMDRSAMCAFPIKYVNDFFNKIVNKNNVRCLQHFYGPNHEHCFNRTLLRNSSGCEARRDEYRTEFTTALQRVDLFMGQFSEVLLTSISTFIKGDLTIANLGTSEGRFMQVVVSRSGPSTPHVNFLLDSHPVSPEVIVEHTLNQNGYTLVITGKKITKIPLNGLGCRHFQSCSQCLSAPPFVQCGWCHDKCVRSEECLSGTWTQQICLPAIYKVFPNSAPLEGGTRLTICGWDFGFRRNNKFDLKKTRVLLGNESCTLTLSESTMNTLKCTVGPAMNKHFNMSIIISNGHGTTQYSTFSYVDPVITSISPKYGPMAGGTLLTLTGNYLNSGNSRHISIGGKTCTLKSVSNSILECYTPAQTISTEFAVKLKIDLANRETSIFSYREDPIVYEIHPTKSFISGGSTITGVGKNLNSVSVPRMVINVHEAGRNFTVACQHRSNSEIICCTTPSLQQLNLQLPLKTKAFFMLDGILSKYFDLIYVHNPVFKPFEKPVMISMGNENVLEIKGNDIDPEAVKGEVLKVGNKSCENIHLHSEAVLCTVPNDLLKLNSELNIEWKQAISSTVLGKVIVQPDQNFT
The assay is described as above.

Assay [9] deals with T9, rHuman ErbB2/Fc Chimera, CF (R&D Systems Cat#1129-ER) (human, UniProt P04626 23-652).
T9 construct: Bought recombinant protein; Fc part of the bought chimera not given
The description is as above.

Assay [10] concerns the target T10, rHuman Erythropoietin R/Fc Chimera, CF (R&D Systems Cat#963-ER) (human, UniProt P19235 25-250).
T10 construct: Bought recombinant protein; also called EPO R/Fc; Epo R; Fc part of the bought chimera not given
T10 sequence (looked up): T4 sequence (looked up)
Put plainly: Multispot ECL (MSD), antigen spotted on plate, Fab 125 nM; blank spot 403.

In assay [11] the target is T11, Recombinant Human DLL4 (R&D Systems Cat#1506-D4/CF) (human, UniProt Q9NR61 27-524).
T11 construct: Bought recombinant protein; also called rHuman DLL4; delta-like protein 4
The assay is described as above.

The target in assay [12] is T12, rHuman Notch-1/Fc Chimera, CF (R&D Systems Cat#3647-TK) (human, UniProt P46531 19-526).
T12 construct: Bought recombinant protein; Fc part of the bought chimera not given
The assay is described as above.

Assay [13] addresses T13, rHuman IGF-1 sR, CF (R&D Systems Cat#391-GR) (human, UniProt P08069 31-932).
T13 construct: Bought recombinant soluble receptor; also called insulin-like growth factor-1 soluble receptor
Described as above.

In assay [14] the target is T10, rHuman Erythropoietin R/Fc Chimera, CF …. The assay is described as follows: Multispot ECL (MSD), antigen spotted on plate, Fab 7.8 nM; blank spot 316.
For assay [15], the target named is T11, Recombinant Human DLL4 (R&D Systems …). Described as above.
The target in assay [16] is T12, rHuman Notch-1/Fc Chimera, CF (R&D …). The assay is described as above.
For assay [17], the target named is T13, rHuman IGF-1 sR, CF (R&D Systems …). The description is as above.
The target of assay [18] is T14, rHuman ErbB2/Fc Chimera, CF (R&D Systems Cat#1129-ER) (human, UniProt P04626 23-652).
T14 construct: Bought recombinant protein; Fc part of the bought chimera not given
Put plainly: ECL multispot (MSD) assay, spotted antigen; Fab 20.00 (head prints uM).

Assay [19] deals with T15, rHuman IGF-1 sR, CF (R&D Systems Cat#391-GR) (human, UniProt P08069 31-932).
T15 construct: Bought soluble receptor; The column head prints only 'IGF-1'; also called insulin-like growth factor-1 soluble receptor
The description is as above.

Assay [20] has as its target T16, rHuman EGF R/Fc Chimera, CF (R&D Systems Cat#344-ER) (human, UniProt P00533 25-645).
T16 construct: Bought recombinant protein; Fc part of the bought chimera not given
Described as above.

B1: Fab VH1-46_IGHD6-6*01_IGHJ1*01 S102A/S103P/S104F (APF) & L6_IGKJ1*01 (Fab, V domains shown)
VH: QVQLVQSGAEVKKPGASVKVSCKASGYTFTSYYMHWVRQAPGQGLEWMGIINPSGGSTSYAQKFQGRVTMTRDTSTSTVYMELSSLRSEDTAVYYCAREEYAPFSAEYFQHWGQGTLVTVSS
VL: not shown
notes: Tested as a Fab made in E. coli: VH cloned in Plasmid A (CH1 constant region, His6 and Flag tags), VL in Plasmid C (kappa constant region); also called H:APF & L:wt; APF triple mutant
Regarding B1, the ECL signal is 1010 in assay [1]; 28900 in [2]; 1480 in assay [3]; 1210 in assay [4]; 785 in [5]; 613 in assay [6]. The values for the ECL signal in assay [7], in [8] and in assay [9] were 874, 760 and 1580, respectively.

B2: Fab VH1-46_IGHD6-13*01_IGHJ4*01 & B3_IGKJ1*01 (Fab, V domains shown)
VH: B1 VH with E100G, A102S, P103S, F104S, S105W, A106Y, E107D, Q110D, H111Y
VL: not shown
notes: Germline Fab made in E. coli; VH was cloned into Plasmid A (CH1, His6 and Flag tags) and the kappa VL into Plasmid C (kappa CL)
For B2, the ECL signal came to 9240 in assay [10]; 912 in assay [11]; 802 in [12]; 654 in assay [13]; 6760 in assay [14]; 407 in [15]. For the same molecule, the ECL signal in assay [16] stood at 486; in assay [17], 353.

B3: Fab VH5-51_IGHD5-18*01>3_IGHJ4*01 G100K/G104T & V3-4_IGLJ1*01 (Fab, V domains shown)
VH: EVQLVQSGAEVKKPGESLKISCKGSGYSFTSYWIGWVRQMPGKGLEWMGIIYPGDSDTRYSPSFQGQVTISADKSISTAYLQWSSLKASDTAMYYCARRKYSYTYDYFDYWGQGTLVTVSS
VL: QTVVTQEPSFSVSPGGTVTLTCGLSSGSVSTSYYPSWYQQTPGQAPRTLIYSTNTRSSGVPDRFSGSILGNKAALTITGAQADDESDYYCVLYMGSGISYVFGTGTKVTVL
notes: Tested as a Fab; The constant parts are the same as for the parent Fab (CH1 with His6/Flag tags, lambda CL); also called KT double mutant; H:KT
On to B3, for which the ECL signal/noise ratio in assay [18] is 1.2; in assay [19], 1.1; in assay [20], 1.1.
